Source: paper PMC10382678

Molecular target: ectoLRP4-AP (alkaline phosphatase-conjugated ectodomain of mouse LRP4) (mouse) (UniProt Q8VI56)
Test: ELISA; plate-binding assay, competition: 500 nM purified recombinant neural agrin added to 25 nM ectoLRP4-AP on ColQ-coated wells; agrin as the competitor that binds LRP4

ectoLRP4-AP (alkaline phosphatase-conjugated ectodomain of mouse LRP4) (mouse), sequence (Q8VI56 21-1725): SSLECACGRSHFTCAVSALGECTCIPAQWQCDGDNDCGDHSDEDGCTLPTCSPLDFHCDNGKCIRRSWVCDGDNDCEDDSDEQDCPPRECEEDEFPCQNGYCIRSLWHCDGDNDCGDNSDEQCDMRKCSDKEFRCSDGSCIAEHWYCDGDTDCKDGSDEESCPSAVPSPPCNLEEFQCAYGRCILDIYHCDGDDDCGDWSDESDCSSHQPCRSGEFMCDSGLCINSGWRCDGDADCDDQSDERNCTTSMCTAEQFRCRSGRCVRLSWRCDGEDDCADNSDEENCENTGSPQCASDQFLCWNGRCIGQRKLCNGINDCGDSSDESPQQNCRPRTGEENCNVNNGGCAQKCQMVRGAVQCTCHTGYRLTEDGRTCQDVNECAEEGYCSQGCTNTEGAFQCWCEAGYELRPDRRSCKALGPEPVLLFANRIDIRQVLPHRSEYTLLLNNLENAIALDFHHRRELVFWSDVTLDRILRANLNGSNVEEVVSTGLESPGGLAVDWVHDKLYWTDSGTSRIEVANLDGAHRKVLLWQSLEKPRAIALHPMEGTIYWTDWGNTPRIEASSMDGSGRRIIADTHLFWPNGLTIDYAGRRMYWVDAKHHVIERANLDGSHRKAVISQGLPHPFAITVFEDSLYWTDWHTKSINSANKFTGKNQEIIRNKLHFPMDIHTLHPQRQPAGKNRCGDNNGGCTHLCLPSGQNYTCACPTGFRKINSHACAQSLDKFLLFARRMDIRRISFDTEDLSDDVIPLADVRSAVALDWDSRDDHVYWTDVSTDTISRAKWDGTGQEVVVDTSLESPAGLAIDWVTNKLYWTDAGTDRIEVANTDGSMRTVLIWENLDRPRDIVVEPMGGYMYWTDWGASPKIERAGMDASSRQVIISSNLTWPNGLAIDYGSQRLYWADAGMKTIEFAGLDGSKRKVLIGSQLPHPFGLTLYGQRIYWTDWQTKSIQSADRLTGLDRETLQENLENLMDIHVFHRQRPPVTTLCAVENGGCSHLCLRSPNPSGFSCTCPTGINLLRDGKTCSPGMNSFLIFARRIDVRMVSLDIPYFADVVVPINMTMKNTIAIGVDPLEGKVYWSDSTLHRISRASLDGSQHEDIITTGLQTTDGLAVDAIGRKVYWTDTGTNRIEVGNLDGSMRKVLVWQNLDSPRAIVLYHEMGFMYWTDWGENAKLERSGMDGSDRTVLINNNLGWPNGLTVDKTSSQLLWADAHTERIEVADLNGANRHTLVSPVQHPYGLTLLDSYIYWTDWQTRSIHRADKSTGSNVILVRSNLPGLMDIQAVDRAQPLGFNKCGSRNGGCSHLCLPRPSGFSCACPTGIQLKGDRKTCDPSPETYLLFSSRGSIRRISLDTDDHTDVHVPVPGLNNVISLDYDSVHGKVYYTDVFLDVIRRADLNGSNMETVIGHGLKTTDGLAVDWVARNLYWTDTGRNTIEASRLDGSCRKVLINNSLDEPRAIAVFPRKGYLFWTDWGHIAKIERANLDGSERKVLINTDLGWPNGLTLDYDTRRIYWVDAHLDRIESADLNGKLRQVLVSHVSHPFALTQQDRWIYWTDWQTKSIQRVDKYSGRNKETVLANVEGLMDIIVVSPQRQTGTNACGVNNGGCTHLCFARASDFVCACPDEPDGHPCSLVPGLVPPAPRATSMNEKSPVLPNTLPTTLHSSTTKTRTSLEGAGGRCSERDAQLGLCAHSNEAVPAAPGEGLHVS

Substance “recombinant rat neural agrin (Sf21-derived C-terminal agrin, His-tagged, R&D Systems) (from UniProt P25304 1-1959) (ligand)” has a percent reduction of ectoLRP4-AP (25 nM) binding to ColQ by 500 nM agrin of over 50%.
